Laboratory results taken from US9260754B2, “Connexin mutation detection for lymphatic variation and disease” (University of Pittsburgh—Of the Commonwealth System of …, priority 2010, dated 2016).
Entries after “also recorded” stand apart in the source; their conditions may differ.

B1: WT-hCx47: human wild type Cx47 construct in bicistronic pIRES2-EGFP vector, expressed in HeLa cells or LECs (protein, UniProt Q5T442 1-439, looked up)
Gap junction gamma-2 protein: MTNMSWSFLTRLLEEIHNHSTFVGKVWLTVLVVFRIVLTAVGGEAIYSDEQAKFTCNTRQPGCDNVCYDAFAPLSHVRFWVFQIVVISTPSVMYLGYAVHRLARASEQERRRALRRRPGPRRAPRAHLPPPHAGWPEPADLGEEEPMLGLGEEEEEEETGAAEGAGEEAEEAGAEEACTKAVGADGKAAGTPGPTGQHDGRRRIQREGLMRVYVAQLVARAAFEVAFLVGQYLLYGFEVRPFFPCSRQPCPHVVDCFVSRPTEKTVFLLVMYVVSCLCLLLNLCEMAHLGLGSAQDAVRGRRGPPASAPAPAPRPPPCAFPAAAAGLACPPDYSLVVRAAERARAHDQNLANLALQALRDGAAAGDRDRDSSPCVGLPAASRGPPRAGAPASRTGSATSAGTVGEQGRPGTHERPGAKPRAGSEKGSASSRDGKTTVWI
B2: G146S: Cx47 missense mutant G146S (436G>A), intracellular loop, construct expressed in HeLa cells or LECs (protein, listed as Homo sapiens)
chain: MSWSFLTRLLEEIHNHSTFVGKVWLTVLVVFRIVLTAVGGEAIYSDEQAKFTCNTRQPGCDNVCYDAFAPLSHVRFWVFQIVVISTPSVMYLGYAVHRLARASEQERRRALRRRPGPRRAPRAHLPPPHAGWPEPADLGEEEPMLSLGEEEEEEETGAAEGAGEEAEEAGAEEACTKAVGADGKAAGTPGPTGQHDGRRRIQREGLMRVYVAQLVARAAFEVAFLVGQYLLYGFEVRPFFPCSRQPCPHVVDCFVSRPTEKTVFLLVMYVVSCLCLLLNLCEMAHLGLGSAQDAVRGRRGPPASAPAPAPRPPPCAFPAAAAGLACPPDYSLVVRAAERARAHDQNLANLALQALRDGAAAGDRDRDSSPCVGLPAASRGPPRAGAPASRTGSATSAGTVGEQGRPGTHERPGAKPRAGSEKGSASSRDGKTTVWI

How the values were obtained:
HeLa cell pairs = experiment: Dual whole cell patch clamp recording of coupling current in transfected HeLa cell pairs; format: cell-based, human; settings: for elect coupling: Table 3 (Example 2); for elect coupling / electrical coupling: HeLa cell pairs, 100 mV step, mean ± SEM; for electrical coupling: Table 6 (Example 4); for electrical coupling / functional channels in HeLa cell pairs (in words): transfected HeLa cell pairs, voltage step protocol −100 to +100 mV
Protocol: Coupling currents were recorded using simultaneous double whole-cell patch clamp recordings from isolated pairs of cells that were in contact with one another (determined visually) as previously described. Briefly, the pipette solution consisted of (mM): 130 CsCl, 10 EGTA, 10 HEPES, 3 Mg-ATP, 2 Na-ATP, 0.5 CaCl2, pH 7.3. The culture was bathed in a solution consisting of (mM): 140 NaCl, 5 HEPES, 5 glucose, 4 KCl, 2 CsCl, 2 CaCl2, 2 pyruvate, 1 BaCl2, pH 7.3. Transfected HeLas undergo electrophysiologic analysis in a blinded manner. Pairs of cells were chosen for study only if both expressed the GFP marker indicative of successful transfections; both stable and transient transfectants were analyzed. Patch pipettes were fabricated from borosilicate glass, and coupling currents were amplified by Axopatch 200A amplifiers, filtered at 1 KHz, and digitized at 5 KHz for subsequent analysis using pClamp software (Axon Instruments/Molecular Devices; Sunnyvale, Calif.). All experiments were carried out at room temperature (22° C.). Coupling current was quantified by measuring the peak current recorded in the pair when the neighboring cell received a 100 mV step membrane potential change (in both positive and negative directions). Step changes in membrane potential were delivered to each cell in the pair in sequence and the average current recorded in the neighboring cell was determined and divided by 100 to generate coupling current expressed in pA/mV. Means±SEM were calculated and statistical significance using a one-way analysis of variance and Tukey's post-hoc test, p<0.05.
Coupling current is quantified by measuring the peak current recorded in the pair when the neighboring cell receives a 100 mV step membrane potential change (in both positive and negative directions). Step changes in membrane potential are delivered to each cell in the pair in sequence and the average current recorded in the neighboring cell determined and divided by 100 to generate coupling current expressed in pA/mV (FIG. 6C). Replicate measurements (n=3-6) are made on at least two different days. […] The untransfected HeLa cell pairs also show minimal channel function, as predicted.
Electrophysiologic characteristics of GJIC were measured between HeLa cell pairs transfected with the mutant constructs (as indicated by EGFP expression) by dual whole cell patch clamp recording. All experiments were carried out in a blinded manner. Coupling current is quantified by measuring the peak current recorded in the pair when the neighboring cell receives a 100 mV step membrane potential change (in both positive and negative directions). Step changes in membrane potential are delivered to each cell in the pair in sequence and the average current recorded in the neighboring cell determined and divided by 100 to generate coupling current expressed in pA/mV. Untransfected HeLa cells and cells transfected with empty vector (i.e., no hCx47) were used as additional controls.

HeLa cells = experiment: Wound assay (proliferation/migration) in confluent transfected HeLa cells; format: cell-based, human; settings: for wound assay: fraction of original wound in HeLa cell monolayer after 24 hrs, mean ± SEM
Protocol: The wound assay, a measure of proliferation/migration, was performed using differential interference contrast time lapse of over 24 hrs using confluent transfected HeLa cells. Analysis was done using TScratch (Geback T, et al. TScratch: a novel and simple software tool for automated analysis of monolayer wound healing assays. Biotechniques 2009; 46:265-74), mean±SEM of at least 10 positions along wound; the scrape width was normalized to the first image for each position. In all cases a two tailed student's T test was applied with p<0.05 considered significant.

[1] = test system: Adult human dermal lymphatic microvascular endothelial cells; experiment: Lucifer yellow microinjection dye spread in lymphatic endothelial cells expressing mutant constructs; format: cell-based; settings: Dye spread to tiers of LECs after 2 min; Lucifer yellow microinjection; mean ± SEM
Protocol: Adult human dermal lymphatic microvascular endothelial cells were cultured in EGM™-2 MV (both from Lonza). Cells were electroporated with 2 μg cDNA of the EGFP tagged mutant constructs and then selected with G418 as described above. Cells were microinjected using a combination (1:4 ratio) of 70 kd Texas Red dextran (Invitrogen) to mark injected cell for reference and Lucifer yellow, a known gap junction permeable dye (m.w. 443, −2 charge), to assess change in extent of spread (Abbaci M, et al. Advantages and limitations of commonly used methods to assay the molecular permeability of gap junctional intercellular communication. Biotechniques 2008; 45:33-52, 6-62). All cells were injected using constant conditions and cells were scored for dye spread in tiers from reference cell, using constant exposure time and thresholding, and were imaged using a Nikon TE2000 with temperature controlled motorized stage and Qlmaging Retiga CCD camera. Images were obtained using differential interference contrast (DIC) and standard filters for EGFP (identify expression of mutation), DAPI (for Lucifer yellow) and dsRed (for dextran) preinjection, immediately post-injection and 2 min after injection. Results were calculated as mean SEM and statistical significance was determined in comparison to WT-hCx47-EGFP expressing cells using a Mann-Whitney Test.

Molecule | elect coupling (HeLa cell pairs) [pA/mV] | electrical coupling (HeLa cell pairs) [pA/mV] | electrical coupling / functional channels in HeLa cell pairs (in words) (HeLa cell pairs) | electrical coupling / functional channels in HeLa cell pairs (in words) (HeLa cell pairs; listed as WT hCx47) | electrical coupling / functional channels in HeLa cell pairs (in words) (HeLa cell pairs; listed as WT-hCX47-EGFP) | wound assay (HeLa cells) | LEC spread [1] [tiers] | wound closure compared to WT-hCx47-EGFP transfected cells (in words) (HeLa cells; HeLa cells, cell scratch assay)
B1 | 31.6 | 35.9 | show evidence of voltage-dependent gating | well coupled | well coupled | 0.72 | 1.4 | 
B2 | 16.2 | 32.4 | well coupled |  |  | 0.62 | 2.0 | faster wound closure; also recorded: more rapid closure
